Results from patent US20250215080A1 (published 2025).
Blank lines part the entries; values can stand above or below the binder they belong to.

Assays:
[1] = molecular target: T1, human TREM2 (hTREM2), expressed on cells (human, UniProt Q9NZC2 19-230); experiment: FACS, hM2A macrophages
T1 construct: Signal peptide 1-18 as stated left out; On CHO cells co-expressed with hDAP12; on hM2A macrophages endogenous; also called WT-TREM2; CHO-hDAP12-hTREM2
T1 sequence: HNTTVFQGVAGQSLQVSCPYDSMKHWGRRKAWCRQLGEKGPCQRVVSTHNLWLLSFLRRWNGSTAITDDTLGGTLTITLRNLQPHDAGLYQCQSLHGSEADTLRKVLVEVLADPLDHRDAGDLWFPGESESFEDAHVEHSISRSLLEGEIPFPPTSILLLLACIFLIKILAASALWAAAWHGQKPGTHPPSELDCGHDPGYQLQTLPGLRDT
Experimental: (§1) To determine cellular EC₅₀ of antibodies on hM2A, CHO-hTREM2 or CHO-cynoTREM2, cells were treated o/n with 5 μM DPC333 (ADAM10 and 17 inhibitor; Qian, M et al. Drug Metab Dispos, 2007. 35:p. 1916-1925). Macrophages were detached with accutase (Biolegend, 423201) followed by resuspension in FACS buffer (PBS, 2% FBS, 0.5 mM EDTA, pH 8.0) supplemented with 50 μg/ml Fc block (BD, 564220) and incubated for at least 20 min on ice. Next cells were stained for 1 h at 4° C. in the same buffer with a broad concentration range of the different anti-TREM2 antibodies followed by a washing step with PBS (250 g, 4° C., 3 min). […] After a second washing step with PBS (250 g, 4° C., 3 min), cells were fixed with fixation buffer (Biolegend, 420801) for 15 min at RT, washed again and fluorescence was assessed using a BD FACS Canto II (BD, V96300323) or a FacsCalibur flow cytometer. Median fluorescence intensities corresponding to the degree of TREM2 antibody bound to cells were evaluated using FlowJo software (Millipore INC).
(§2) Individual values for each donor are given.

[2] = molecular target: T1, human TREM2 (hTREM2), expressed on cells; experiment: FACS, hM2A, donor 4
Experimental: as §1, §2

hTREM2 ECD (19-174) [3] = molecular target: T2, hTREM2 ECD (19-174) (human, UniProt Q9NZC2 19-174); experiment: SET screening
T2 construct: Antigen in solution of the SET experiments; also called human TREM2 (SET antigen)
T2 sequence: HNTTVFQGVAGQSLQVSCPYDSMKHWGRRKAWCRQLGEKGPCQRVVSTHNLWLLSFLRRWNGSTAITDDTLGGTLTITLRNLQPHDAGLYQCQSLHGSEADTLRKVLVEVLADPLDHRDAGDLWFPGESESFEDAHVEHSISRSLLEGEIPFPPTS
Experimental: Serial dilutions of unlabeled antigen were prepared, starting with a concentration at least 10 times higher than the expected KD. Wells without antigen were used to determine Bmax values; wells containing only assay buffer were used to determine background.
The data was evaluated with XLfit (IDBS) software applying customized fitting models. […] A constant amount of diluted BEL extract (containing borate buffer, EDTA and lysozyme) was equilibrated over night with different concentrations of antigen.

[4] = molecular target: T1, human TREM2 (hTREM2), expressed on cells; experiment: FACS, hM2A, donor 1
Experimental: as §1, §2

[5] = molecular target: proteins of the protein panel profiling (3P), 25 in total; experiment: protein panel profiling (3P), ECL
[6] = molecular target: T1, human TREM2 (hTREM2), expressed on cells; experiment: FACS, hM2A, donor 2
Experimental: as §1, §2

hTREM2 ECD (19-174)-hFc [7] = molecular target: T3, hTREM2 ECD (19-174)-hFc (human, UniProt Q9NZC2 19-174, biotinylated in the -bio form); experiment: SPR, label free kinetics
T3 construct: Plain and biotinylated forms are kept as one molecule; also called hTREM2 ECD (19-174)-hFc-bio; hTREM2 Fc
T3 sequence: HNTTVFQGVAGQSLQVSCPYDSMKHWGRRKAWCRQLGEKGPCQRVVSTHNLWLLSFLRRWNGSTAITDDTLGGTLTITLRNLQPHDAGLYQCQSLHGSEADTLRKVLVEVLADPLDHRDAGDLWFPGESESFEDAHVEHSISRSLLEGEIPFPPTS
Experimental: (§3) For a precise assessment of the binding affinities of the antibodies affinity-determination by measuring kinetic rate constants was performed by SPR. In addition a comparison to cynomolgus TREM2 was performed (Table 21).

[8] = molecular target: T4, cyTREM2 ECD (19-174)-APP-Avi (cynomolgus, UniProt A0A2K5UY34 49-204); experiment: SPR, label free kinetics
T4 construct: range 19-174
T4 sequence: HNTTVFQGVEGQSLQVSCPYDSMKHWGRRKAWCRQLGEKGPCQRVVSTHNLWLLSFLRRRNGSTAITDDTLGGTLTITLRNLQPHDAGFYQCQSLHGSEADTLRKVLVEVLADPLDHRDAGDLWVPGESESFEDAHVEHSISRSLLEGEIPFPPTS
Experimental: as §3

cyTREM2 ECD (19-174)-hFc = molecular target: T5, cyTREM2 ECD (19-174)-hFc (cynomolgus, UniProt A0A2K5UY34 49-204); experiment: S/BG on recombinant protein
T5 construct: range 19-174; also called cyTREM2-ECD (19-174)-hFc-bio
T5 sequence: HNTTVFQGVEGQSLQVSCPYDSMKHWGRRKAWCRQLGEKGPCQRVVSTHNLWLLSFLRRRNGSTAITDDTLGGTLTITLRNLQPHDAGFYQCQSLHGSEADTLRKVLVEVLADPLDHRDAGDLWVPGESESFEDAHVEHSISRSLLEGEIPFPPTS

hTREM2 ECD (19-174)-hFc [9] = molecular target: T3, hTREM2 ECD (19-174)-hFc; experiment: S/BG on recombinant protein
[10] = molecular target: T6, hTREM2 IgSF-hTREM1 stalk-hFc (human, UniProt Q9NP99 135-205, limits assumed, biotinylated in the -bio form); experiment: S/BG on recombinant protein
T6 construct: domain: stalk region; also called hTREM2 IgSF-T1 stalk-hFc-bio; hTREM2 IgSF-hTREM1 stalk-hFc-bio
T6 sequence: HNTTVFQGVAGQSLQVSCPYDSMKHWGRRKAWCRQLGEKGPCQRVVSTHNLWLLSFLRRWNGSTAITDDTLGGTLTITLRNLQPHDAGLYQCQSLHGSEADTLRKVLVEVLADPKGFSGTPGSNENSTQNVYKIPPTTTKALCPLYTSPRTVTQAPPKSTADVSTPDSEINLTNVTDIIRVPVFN

[11] = molecular target: T1, human TREM2 (hTREM2), expressed on cells; experiment: cell-based or functional assay
[12] = molecular target: T1, human TREM2 (hTREM2), expressed on cells; experiment: FACS, hM2A, donor 3
Experimental: as §1, §2

[13] = molecular target: T1, human TREM2 (hTREM2), expressed on cells; experiment: cell-based or functional assay; remark: listed apart in the source
[14] = molecular target: T1, human TREM2 (hTREM2), expressed on cells; experiment: FACS, hM2A, median of 4 donors
Experimental: as §1, §2

[15] = molecular target: T1, human TREM2 (hTREM2), expressed on cells; experiment: cell-based or functional assay; remark: listed apart in the source
[16] = molecular target: T1, human TREM2 (hTREM2), expressed on cells; experiment: FACS, CHO-hTREM2 cells
Experimental: as §1

hTREM2 ECD (19-174) [17] = molecular target: T2, hTREM2 ECD (19-174); experiment: SET
[18] = molecular target: T7, cynomolgus TREM2 (construct not stated) (cynomolgus, UniProt A0A2K5UY34 49-204); experiment: SET
T7 construct: also called cyno TREM2
T7 sequence: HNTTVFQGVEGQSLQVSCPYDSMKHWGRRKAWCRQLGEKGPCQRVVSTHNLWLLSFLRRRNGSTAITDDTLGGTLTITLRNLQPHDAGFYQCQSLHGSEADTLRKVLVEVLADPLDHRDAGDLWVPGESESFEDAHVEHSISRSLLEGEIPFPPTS

[19] = molecular target: T8, cynomolgus TREM2 expressed on CHO cells (cynomolgus, UniProt A0A2K5UY34 49-260); experiment: FACS, CHO-cyTREM2 cells
T8 construct: whole, on cells; also called CHO-cyTREM2; CHO-cynoTREM2
T8 sequence: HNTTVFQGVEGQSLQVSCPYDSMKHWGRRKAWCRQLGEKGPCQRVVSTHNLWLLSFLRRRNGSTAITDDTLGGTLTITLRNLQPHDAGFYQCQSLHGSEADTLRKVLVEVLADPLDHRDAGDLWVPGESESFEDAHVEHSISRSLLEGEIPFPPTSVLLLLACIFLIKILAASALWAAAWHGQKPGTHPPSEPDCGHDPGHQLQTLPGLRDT
Experimental: as §1

[20] = molecular target: T1, human TREM2 (hTREM2), expressed on cells; experiment: FACS, hM2A macrophages; remark: listed apart in the source
hTREM2 ECD (19-174)-hFc [21] = molecular target: T3, hTREM2 ECD (19-174)-hFc; experiment: direct ELISA
Experimental: Antigens were immobilized on microtiter plates (see Table 8). Plates were blocked and incubated with antibodies such as Fab containing crude E. coli lysates or purified Fab or IgG samples. Bound antibodies were detected using respective alkaline-phosphatase (AP) coupled secondary antibodies in combination with ‘AttoPhos’ fluorescence substrate. Multiple washing steps were performed between individual assay steps.

hTREM2 ECD (19-174)-His = molecular target: T9, hTREM2 ECD (19-174)-His (human, UniProt Q9NZC2 19-174); experiment: SPR Biacore
T9 sequence: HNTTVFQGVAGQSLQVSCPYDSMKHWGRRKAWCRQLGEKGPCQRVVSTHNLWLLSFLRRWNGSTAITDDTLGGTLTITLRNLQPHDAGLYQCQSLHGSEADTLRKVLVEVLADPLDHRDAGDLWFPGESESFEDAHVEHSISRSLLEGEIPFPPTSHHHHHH

[22] = molecular target: T4, cyTREM2 ECD (19-174)-APP-Avi; experiment: SPR Biacore
mTREM2 ECD (19-168)-His = molecular target: T10, mTREM2 ECD (19-168)-His (mouse, UniProt Q99NH8 19-168); experiment: SPR Biacore
T10 construct: range 19-168
T10 sequence (looked up): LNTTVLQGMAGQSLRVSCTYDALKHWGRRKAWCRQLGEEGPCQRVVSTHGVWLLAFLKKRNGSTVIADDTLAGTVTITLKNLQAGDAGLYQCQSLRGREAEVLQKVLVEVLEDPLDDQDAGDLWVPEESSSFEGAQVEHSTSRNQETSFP

[23] = molecular target: T1, human TREM2 (hTREM2), expressed on cells; experiment: FACS, CHO-DAP12-hTREM2 cells
[24] = molecular target: T1, human TREM2 (hTREM2), expressed on cells; experiment: FACS, CHO-hDAP12-hTREM2 cells

EC50 [1]: < 2 nM
EC50 [2]: 0.56 nM
Kd (hTREM2 ECD (19-174) [3]): < 0.6 nM
EC50 [4]: 0.86 nM
Cumulative binding ratio [5]: < 150
EC50 [6]: 0.55 nM
Kd (hTREM2 ECD (19-174)-hFc [7]): 0.046 nM
Kd [8]: 0.039 nM
S/BG (cyTREM2 ECD (19-174)-hFc): > 5
S/BG (hTREM2 ECD (19-174)-hFc [9]): > 5
S/BG [10]: > 20
Internalization compared to parental after 6 h [11]: 1.5 fold of parental
Internalization; fold over background after 6 h [11]: 57.1 fold
EC50 [12]: 0.55 nM
Fold TREM2 cell surface increase compared to isotype (hM2A, 100 nM o/n) [13]: 7.9 fold
EC50 [14]: 0.56 nM
TREM2 activation (fold in RGA) [15]: 1 fold
EC50 [16]: 0.2 nM
Kd (hTREM2 ECD (19-174) [17]): 0.046 nM
Kd [18]: 0.039 nM
EC50 [19]: 0.46 nM
B1: MOR044698 (antibody, V domains shown)
VH: QVQLVQSGAEVKKPGASVKVSCKASGYTFTGYHMSWVRQAPGQGLEWMGVINPVSGNTVYAQKFQGRVTMTRDTSISTAYMELSRLRSEDTAVYYCARIPSYTYAFDYWGQGTLVTVSS
VL: DIQMTQSPSSLSASVGDRVTITCRASQDISNYLAWYQQKPGKAPKLLIYRASSLQSGVPSRFSGSGSGTDFTLTISSLQPEDFATYYCFQYRHMPSQTFGQGTKVEIK
notes: light chain 26); Human IgG vector of the campaign: IgG1f LALA; Matured from MOR042596; VH1B k1; also called MOR44698

EC50 [20]: 37 nM
EC50 (hTREM2 ECD (19-174)-hFc [21]): 2.4 nM
Kd (hTREM2 ECD (19-174)-His): 12 nM
Kd [22]: 6.6 nM
Kd (mTREM2 ECD (19-168)-His): 0.9 nM
EC50 [23]: 3.4 nM
EC50 [24]: 3.4 nM
B2: MOR042596 (full IgG) (antibody, V domains shown)
VH: QVQLVQSGAEVKKPGASVKVSCKASGYTFTGYHMSWVRQAPGQGLEWMGVINPVSGNTVYAQKFQGRVTMTRDTSISTAYMELSRLRSEDTAVYYCARIPSYTYAFDYWGQGTLVTVSS
VL: DIQMTQSPSSLSASVGDRVTITCRASQDISNYLAWYQQKPGKAPKLLIYRASSLQSGVPSRFSGSGSGTDFTLTISSLQPEDFATYYCQQHGHSPTTFGQGTKVEIKR
notes: Parental antibody of MOR044698; VH1B k1
